Test results reported in US11726091B2, “Compositions and methods of diagnosing pancreatic cancer” (THE REGENTS OF THE UNIVERSITY OF CALIFORNIA, priority 2017, dated 2023).
Where a SMILES comes first, the peptide text is derived from it. Where no end group is shown, it is not given here. [ ]: non-standard residue; d: D form. The star is where a group is joined. Sta = CC(C)C[C@H](N)[C@@H](O)CC(=O)O; Isovaleryl = CC(C)CC(=O)*

How the values were obtained:
Cathepsin E [1] = biological target: T1, Cathepsin E (Homo sapiens, UniProt P14091); assay: Cleavage of peptide substrates by cathepsin E (MSP-MS assay); format: biochemical; parameters: purchased R&D Systems 1294-AS; details: Target Protease Cathepsin E; for Relative Cleavage: relative to the most cleaved substrate (1.00)
T1 sequence (P14091 54-396): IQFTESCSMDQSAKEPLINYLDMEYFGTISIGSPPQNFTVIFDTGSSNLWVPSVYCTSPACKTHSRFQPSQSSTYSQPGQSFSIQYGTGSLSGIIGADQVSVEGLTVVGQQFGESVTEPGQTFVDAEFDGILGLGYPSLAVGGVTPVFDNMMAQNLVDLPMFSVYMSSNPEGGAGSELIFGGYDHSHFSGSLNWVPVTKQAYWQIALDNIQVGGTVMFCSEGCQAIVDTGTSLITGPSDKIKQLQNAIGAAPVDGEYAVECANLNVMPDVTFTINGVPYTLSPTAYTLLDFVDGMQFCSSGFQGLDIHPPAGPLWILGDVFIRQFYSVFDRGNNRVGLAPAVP
Protocol: (§1) The MSP-MS assay was performed as previously described (34). Cyst fluid was diluted to 100 μg/mL in assay buffer (either pH 7.5 phosphate buffer or pH 3.5 acetate buffer) and pre-incubated for 10 minutes. For analysis of protease inhibitor sensitivity, 1 mM AEBSF (Sigma, A8456), 2 μM E-64 (Sigma, E3132), 2 μM pepstatin (Sigma, P5318), 2 mM 1,10-phenanthroline (Sigma, 131337), or DMSO were included in pre-incubation. The 228 tetradecapeptide library was split into two pools and diluted in assay buffer to a concentration of 1 μM of each peptide. 75 μL of diluted cyst fluid and peptide pools were then combined and incubated at room temperature. 30 μL aliquots were removed after 15 and 60 minutes, protease activity quenched with 8 M guanidinium hydrochloride, and flash-frozen in liquid N2. For recombinant gastricsin (R&D Systems, 6186-AS), cathepsin D (R&D Systems, 1014-AS), and cathepsin E (R&D Systems, 1294-AS), the MSP-MS assay was performed as described above with slight modifications: 10 nM of recombinant protease in pH 3.5 acetate buffer was used and aliquots were removed after 15, 60, and 240 minutes.
(§2) Prior to peptide cleavage site identification by mass spectrometry, samples were desalted using C18 tips (Rainin). Mass spectrometry analysis was carried out with an LTQ Orbitrap XL mass spectrometer coupled to a 10,000 psi nanoACQUITY Ultra Performance Liquid Chromatography (UPLC) System (Waters) for peptide separation by reverse phase liquid chromatography (RPLC). Peptides were separated over a C18 column (Thermo) and eluted by applying a flow rate of 300 nL/min with a 65-minute linear gradient from 2-30% acetonitrile. Survey scans were recorded over a 325-1500 m/z range and the six most intense precursor ions were fragmented by collision-induced dissociation (CID) for MS/MS.
(§3) Raw mass spectrometry data was processed to generate peak lists using MSConvert. Peak lists were then searched in Protein Prospector v. 5.10.0 (35) against a custom database containing the sequences from the 228 tetradecapeptide library. Searches used a mass accuracy tolerance of 20 ppm for precursor ions and 0.8 Da for fragment ions. Variable modifications included N-terminal pyroglutamate conversion from glutamine or glutamate and oxidation of tryptophan, proline, and tyrosine. Searches were subsequently processed using the MSP-xtractor software (http://www.craiklab.ucsf.edu/extractor.html), which extracts the peptide cleavage site and spectral counts of the corresponding cleavage products. Spectral counts were used for the relative quantification of peptide cleavage products.

Gastricsin [2] = biological target: T2, Gastricsin (Homo sapiens, UniProt P20142); assay: Cleavage of peptide substrates by gastricsin (MSP-MS assay); format: biochemical; parameters: purchased R&D Systems 6186-AS; details: Target Protease Gastricsin; for Relative Cleavage: relative to the most cleaved substrate (1.00)
T2 sequence (P20142 60-388): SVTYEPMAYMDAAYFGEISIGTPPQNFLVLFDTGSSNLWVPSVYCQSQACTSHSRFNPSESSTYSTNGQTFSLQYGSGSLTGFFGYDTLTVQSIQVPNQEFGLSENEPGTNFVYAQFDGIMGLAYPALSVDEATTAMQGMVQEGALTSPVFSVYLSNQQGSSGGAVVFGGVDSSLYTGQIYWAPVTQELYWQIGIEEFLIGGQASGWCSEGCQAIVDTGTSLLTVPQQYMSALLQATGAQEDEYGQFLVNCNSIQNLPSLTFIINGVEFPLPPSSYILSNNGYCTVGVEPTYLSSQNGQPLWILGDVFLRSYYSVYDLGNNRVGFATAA
Protocol: as §1, §2, §3

Cathepsin E [3] = biological target: T1, Cathepsin E; assay: Fluorescent protease activity assay with recombinant cathepsin E; format: biochemical; parameters: purchased R&D Systems 1294-AS
Protocol: (§4) Synthesis of internally quenched fluorescent peptides was conducted using Fmoc solid-phase peptide synthesis on a Syro II automated synthesizer (Biotage). Briefly, reactors were charged with Wang resin preloaded with Fmoc-Lys(dinitrophenol) (Anaspec, A23856). Coupling reactions were conducted on a 0.0125 mmol scale in 500 μL of DMF with 5 equivalents of Fmoc amino acid (Anaspec), 4.9 equivalents of HCTU (Anaspec), and 20 equivalents of N-methylmorpholine (NMM). Fmoc deprotection was conducted by incubation with 500 μL 40% 4-methlypiperidine in DMF, followed by 500 μL 20% 4-methlypiperidine in DMF. Substrates were capped with a […] Lys-(7-methoxycoumarin-4-acetic acid)-OH (EMD Millipore, 852095) followed by two D-Arg residues to enhance solubility. Peptides were removed from resin by incubating with 500 μL of cleavage solution (95% trifluoroacetic acid, 2.5% water, 2.5% Triisopropylsilane). […]
(§5) All fluorescent protease activity assays were performed in triplicate in black, round-bottom 384 well plates. […] Fluorescent substrate cleavage was monitored with a Biotek Synergy HT plate reader using excitation and emission wavelengths of 328 nm and 393 nm, respectively. Selectivity of the recombinant proteases was assessed by comparing the initial velocity of substrate hydrolysis in relative fluorescent units per second (RFU/sec). […]

Cathepsin E [4] = biological target: T1, Cathepsin E; assay: Cathepsin E fluorescent substrate assay in patient cyst fluid, mucinous vs nonmucinous cysts; parameters: both proteases are released into cyst fluid in their proforms; from tissue; host or cells: human pancreatic cyst fluid; details: differentiating mucinous from nonmucinous cysts; 110 cyst fluid samples; cutoff 1.23-fold change in fluorescence
From the text: (§6) Pancreatic cyst fluid samples were collected from preconsented patients under institutional review board oversight. All patients included in the study underwent surgical resection of their cystic lesion and have a pathologically confirmed diagnosis. The highest grade of dysplasia observed during pathological evaluation of each cystic lesion is reported. Samples were collected either at the time of surgical resection or during diagnostic endoscopic ultrasound prior to resection of the cystic lesion. Cyst fluid samples were split into 100 μL aliquots and frozen to −80° C. within 60 minutes of collection. Samples underwent at most two freeze-thaw cycles prior to experimental analysis. Total cyst fluid protein concentration was determined by the bicinchoninic acid assay. CEA levels were evaluated for the majority of samples, but were unavailable in 21 cases due to limited cyst fluid volume.
as §5, with “plates. Assays were run for 1 hour in 15 μL of acetate buffer with 0.01% Tween.” for “plates.”

[5] = test system: protease activity of mucinous cyst fluid sample; assay: MSP-MS analysis of protease inhibitor sensitivity in mucinous cyst fluid; format: biochemical, human; details: for number of mucinous-specific substrates whose cleavage was inhibited: 1 mM AEBSF, 2 mM 1,10-phenanthroline
Protocol: as §1, §2, §3

Gastricsin [6] = biological target: T2, Gastricsin; assay: Fluorescent protease activity assay with recombinant gastricsin; format: biochemical; parameters: purchased R&D Systems 6186-AS
Protocol: as §4, §5

Gastricsin [7] = biological target: T2, Gastricsin; assay: Gastricsin fluorescent substrate assay in patient cyst fluid, mucinous vs nonmucinous cysts; parameters: both proteases are released into cyst fluid in their proforms; from tissue; host or cells: human pancreatic cyst fluid; details: differentiating mucinous from nonmucinous cysts; 110 cyst fluid samples; cutoff 1.23-fold change in fluorescence
From the text: as §6
as §5, with “plates. Assays were run for 1 hour in 15 μL of acetate buffer with 0.01% Tween.” for “plates.”

[8] = test system: cathepsin E and gastricsin protease activity in cyst fluid; assay: Pepstatin inhibition of fluorescent substrate cleavage by mucinous cyst fluid; format: biochemical, human; details: fluid from a mucinous cyst, pre-incubation with 2 μM pepstatin; FIG. 11
Protocol: All fluorescent protease activity assays were performed in triplicate in black, round-bottom 384 well plates. Assays were run for 1 hour in 15 μL of acetate buffer with 0.01% Tween. The pH of the acetate buffer was adjusted to promote activity of either aspartyl protease (pH 3.5 for the cathepsin E substrate and pH 2.0 for the gastricsin substrate). 10 μM of substrate was used for all assays (unless otherwise indicated) and was incubated with either 10 nM of recombinant protease or 50 μg/mL of cyst fluid protein. For kinetic analysis of gastricsin activity, the substrate concentration ranged from 0.1-25 μM. For analysis of inhibitor sensitivity, cyst fluid samples were pre-incubated with 2 μM of pepstatin. Fluorescent substrate cleavage was monitored with a Biotek Synergy HT plate reader using excitation and emission wavelengths of 328 nm and 393 nm, respectively. Selectivity of the recombinant proteases was assessed by comparing the initial velocity of substrate hydrolysis in relative fluorescent units per second (RFU/sec). For cyst fluid samples, the change in endpoint RFU was compared relative to wells that contained substrate, but no cyst fluid.

[9] = single mucinous cyst fluid sample, FIG. 2A
[10] = single mucinous cyst fluid sample, 2 μM pepstatin, FIG. 2A

Compound	Total Cleavage (Cathepsin E [1])	Relative Cleavage (Cathepsin E [1])	Total Cleavage (Gastricsin [2])	Relative Cleavage (Gastricsin [2])	other results
GLYFRYE [GLY|FRYE, cathepsin E peptide substrate]	25	1.00			
PWTWYGVK [PWTW|YGVK, gastricsin peptide substrate]			64	1.00	
AGFSLPA (also: fluorophore/quencher) [AGFSL|PA]					limit-of-detection of cathepsin E (Cathepsin E [3]; fluorescence-based activity assay, FIG. 17): approximately 4 μg/mL; selectivity for cathepsin E over both cathepsin D and gastricsin (Cathepsin E [3]; initial velocity of substrate hydrolysis, 10 nM recombinant protease, 10 μM substrate): more than 100 fold; Sensitivity (Cathepsin E [4]): 70%; Specificity (Cathepsin E [4]): 92%
Cl.NCCc1ccc(S(=O)(=O)F)cc1 [AEBSF]					number of mucinous-specific substrates whose cleavage was inhibited [5, 9]: 3 substrates
NMKWTRVL [NMKW|TRVL, gastricsin peptide substrate]			21	0.33	
DEGWALQH (also: fluorophore and quencher) [DEGW|ALQH]			30	0.47	limit-of-detection of gastricsin (Gastricsin [6]; fluorescence-based activity assay, FIG. 16): approximately 600 ng/mL; selectivity for gastricsin over both cathepsins D and E (Gastricsin [6]; initial velocity of substrate hydrolysis, 10 nM recombinant protease, 10 μM substrate (FIG. 4D)): greater than 120 fold; Sensitivity (Gastricsin [7]): 93%; Specificity (Gastricsin [7]): 100%
c1cnc2c(c1)ccc1cccnc12 [1,10-phenanthroline]					number of mucinous-specific substrates whose cleavage was inhibited [5, 9]: 3 substrates
HMIALYWG [HMIA|LYWG, cathepsin E peptide substrate]	10	0.40			
CC(C)CC(=O)N[C@H](C(=O)N[C@H](C(=O)N[C@@H](CC(C)C)[C@@H](O)CC(=O)N[C@@H](C)C(=O)N[C@@H](CC(C)C)[C@@H](O)CC(=O)O)C(C)C)C(C)C [pepstatin] (Isovaleryl-VV[Sta]A[Sta]-OH)					effect on cleavage of the mucinous-specific substrates ([5]; second mucinous cyst fluid sample, FIG. 8): block cleavage of the majority of the mucinous-specific substrates; number of additional mucinous-specific substrates whose cleavage was partially inhibited [5, 10]: 8 substrates; number of mucinous-specific substrates whose cleavage was fully inhibited [5, 10]: 20 substrates; inhibition of cleavage of gastricsin and cathepsin E fluorescent substrates [8]: fully inhibited

Now from value to compound, other results behind:

Total Cleavage (Cathepsin E [1])	Relative Cleavage (Cathepsin E [1])	Total Cleavage (Gastricsin [2])	Relative Cleavage (Gastricsin [2])	Compound	other results
		22	0.34	VGKWSYRM [VGKW|SYRM, gastricsin peptide substrate]	
22	0.88			FGIFYLNG [FGIF|YLNG, cathepsin E peptide substrate]	
17	0.68			IKILMFYW [IKIL|MFYW, cathepsin E peptide substrate]	
